# Data published in the supplement of paper PMC10065799, “High-throughput profiling of sequence recognition by tyrosine kinases and SH2 domains using bacterial peptide display” (eLife, 2023).
# Assays:
# FGFR3 = FGFR3 (UniProt P22607); experiment: phosphorylation enrichment, bacterial display (enrichment ratio); higher = better substrate or ligand; peptides without Tyr show the background
# Fyn = Fyn (UniProt P06241); experiment: as above
# Fes = Fes (UniProt P07332); experiment: as above
# c-Abl (mouse) = experiment: as above
# Fer (mouse) = experiment: as above
# Hck = Hck (UniProt P08631); experiment: as above
# Sequence of Hck (P08631 whole entry, looked up): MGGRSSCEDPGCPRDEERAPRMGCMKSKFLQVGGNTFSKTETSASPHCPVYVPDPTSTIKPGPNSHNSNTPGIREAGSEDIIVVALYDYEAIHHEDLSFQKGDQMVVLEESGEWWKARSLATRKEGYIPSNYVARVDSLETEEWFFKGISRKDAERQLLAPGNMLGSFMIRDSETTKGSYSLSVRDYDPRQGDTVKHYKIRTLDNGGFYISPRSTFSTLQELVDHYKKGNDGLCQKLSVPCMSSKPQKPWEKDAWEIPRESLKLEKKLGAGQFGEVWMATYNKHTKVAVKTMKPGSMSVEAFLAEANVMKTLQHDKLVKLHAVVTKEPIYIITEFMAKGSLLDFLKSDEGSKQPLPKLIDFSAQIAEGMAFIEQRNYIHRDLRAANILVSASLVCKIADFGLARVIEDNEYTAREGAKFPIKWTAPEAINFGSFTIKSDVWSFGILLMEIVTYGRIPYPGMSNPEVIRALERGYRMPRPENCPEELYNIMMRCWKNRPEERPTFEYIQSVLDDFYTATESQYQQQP
# AncSZ = experiment: as above
# MERTK = MERTK (UniProt Q12866); experiment: as above
# Sequence of MERTK (Q12866 whole entry, looked up): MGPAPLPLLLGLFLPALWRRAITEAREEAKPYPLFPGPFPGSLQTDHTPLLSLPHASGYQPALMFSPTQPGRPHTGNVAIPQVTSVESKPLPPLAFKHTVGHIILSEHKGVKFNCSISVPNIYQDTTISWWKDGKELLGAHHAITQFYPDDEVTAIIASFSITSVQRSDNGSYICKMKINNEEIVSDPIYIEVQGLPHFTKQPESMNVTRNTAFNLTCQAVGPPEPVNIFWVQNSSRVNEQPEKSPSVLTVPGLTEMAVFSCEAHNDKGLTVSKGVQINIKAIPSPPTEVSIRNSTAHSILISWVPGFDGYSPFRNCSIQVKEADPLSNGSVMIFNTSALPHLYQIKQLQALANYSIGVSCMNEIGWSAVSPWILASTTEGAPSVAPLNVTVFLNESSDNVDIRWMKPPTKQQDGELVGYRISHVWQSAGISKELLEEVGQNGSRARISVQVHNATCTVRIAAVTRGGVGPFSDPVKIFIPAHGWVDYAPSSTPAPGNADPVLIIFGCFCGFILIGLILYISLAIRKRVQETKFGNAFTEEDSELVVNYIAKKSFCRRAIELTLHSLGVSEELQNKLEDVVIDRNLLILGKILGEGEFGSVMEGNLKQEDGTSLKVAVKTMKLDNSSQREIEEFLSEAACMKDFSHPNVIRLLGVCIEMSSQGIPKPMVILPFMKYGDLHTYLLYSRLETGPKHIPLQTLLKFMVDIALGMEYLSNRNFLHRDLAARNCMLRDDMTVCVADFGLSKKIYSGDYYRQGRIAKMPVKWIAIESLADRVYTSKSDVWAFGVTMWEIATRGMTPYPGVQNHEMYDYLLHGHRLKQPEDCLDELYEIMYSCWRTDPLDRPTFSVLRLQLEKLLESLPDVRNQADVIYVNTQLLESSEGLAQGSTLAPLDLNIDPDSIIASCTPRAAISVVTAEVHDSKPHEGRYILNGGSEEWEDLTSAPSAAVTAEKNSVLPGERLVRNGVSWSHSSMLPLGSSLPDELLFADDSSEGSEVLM
# c-Src = experiment: as above
# FGFR1 = FGFR1 (UniProt P11362); experiment: as above
# Sequence of FGFR1 (P11362 whole entry, looked up): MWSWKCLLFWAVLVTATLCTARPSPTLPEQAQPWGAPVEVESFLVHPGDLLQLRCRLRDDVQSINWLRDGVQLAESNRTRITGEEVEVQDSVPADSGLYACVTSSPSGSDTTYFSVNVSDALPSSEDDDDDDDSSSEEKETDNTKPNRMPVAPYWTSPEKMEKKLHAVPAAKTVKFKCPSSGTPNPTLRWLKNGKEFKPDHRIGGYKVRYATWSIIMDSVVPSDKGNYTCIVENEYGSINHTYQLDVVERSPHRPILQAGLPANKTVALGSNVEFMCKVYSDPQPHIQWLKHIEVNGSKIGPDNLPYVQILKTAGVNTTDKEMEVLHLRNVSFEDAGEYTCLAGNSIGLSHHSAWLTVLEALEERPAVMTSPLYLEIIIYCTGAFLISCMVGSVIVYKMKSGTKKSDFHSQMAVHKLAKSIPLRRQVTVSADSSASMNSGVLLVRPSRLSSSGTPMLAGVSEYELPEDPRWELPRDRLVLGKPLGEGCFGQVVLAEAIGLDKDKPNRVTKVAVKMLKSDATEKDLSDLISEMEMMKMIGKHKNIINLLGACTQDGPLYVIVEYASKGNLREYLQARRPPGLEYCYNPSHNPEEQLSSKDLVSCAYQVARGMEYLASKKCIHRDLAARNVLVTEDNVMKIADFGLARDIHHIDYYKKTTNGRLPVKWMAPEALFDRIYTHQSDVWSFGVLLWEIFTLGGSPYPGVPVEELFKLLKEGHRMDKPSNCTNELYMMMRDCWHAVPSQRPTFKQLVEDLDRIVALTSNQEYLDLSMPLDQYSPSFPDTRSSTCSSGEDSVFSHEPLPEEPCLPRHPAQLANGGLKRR
# EPHB1 = EPHB1 (UniProt P54762); experiment: as above
# Sequence of EPHB1 (P54762 whole entry, looked up): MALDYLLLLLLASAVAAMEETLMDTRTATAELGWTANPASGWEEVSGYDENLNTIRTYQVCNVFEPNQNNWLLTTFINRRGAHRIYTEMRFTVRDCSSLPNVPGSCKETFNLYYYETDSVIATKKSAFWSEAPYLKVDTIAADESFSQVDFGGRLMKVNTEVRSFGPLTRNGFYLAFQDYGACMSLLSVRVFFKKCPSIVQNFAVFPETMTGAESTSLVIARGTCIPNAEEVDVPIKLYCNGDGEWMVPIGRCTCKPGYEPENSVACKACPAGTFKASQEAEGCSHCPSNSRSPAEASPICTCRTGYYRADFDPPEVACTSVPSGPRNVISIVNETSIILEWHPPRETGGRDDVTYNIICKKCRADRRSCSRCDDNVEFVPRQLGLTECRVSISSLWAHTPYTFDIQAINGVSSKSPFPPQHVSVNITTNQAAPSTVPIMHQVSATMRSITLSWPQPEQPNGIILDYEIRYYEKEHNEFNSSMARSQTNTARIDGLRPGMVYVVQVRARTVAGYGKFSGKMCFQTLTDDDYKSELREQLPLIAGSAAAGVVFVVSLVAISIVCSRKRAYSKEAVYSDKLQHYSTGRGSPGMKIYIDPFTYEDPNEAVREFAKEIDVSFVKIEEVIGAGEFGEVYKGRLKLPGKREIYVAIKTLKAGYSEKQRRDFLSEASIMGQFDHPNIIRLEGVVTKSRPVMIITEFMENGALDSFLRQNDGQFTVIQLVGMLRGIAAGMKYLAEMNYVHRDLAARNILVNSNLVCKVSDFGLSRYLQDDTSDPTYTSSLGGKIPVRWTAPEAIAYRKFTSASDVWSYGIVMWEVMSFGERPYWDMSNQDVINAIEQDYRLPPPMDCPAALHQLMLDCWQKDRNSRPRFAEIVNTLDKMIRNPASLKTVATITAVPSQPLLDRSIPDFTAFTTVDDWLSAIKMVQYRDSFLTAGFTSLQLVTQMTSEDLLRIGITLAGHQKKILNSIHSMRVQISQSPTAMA
# Jak2 = Jak2 (UniProt O60674); experiment: as above
# EPHB2 = EPHB2 (UniProt P29323); experiment: as above
# SHP2-C SH2 = experiment: SH2 binding enrichment of the phosphorylated peptide, bacterial display (enrichment ratio); higher = better substrate or ligand; peptides without Tyr show the background
# c-Src SH2 = experiment: as above
# Grb2 SH2 = Grb2 SH2 (UniProt P62993); experiment: as above
# Sequence of Grb2 SH2 (P62993 whole entry, looked up, the tested form may be a part): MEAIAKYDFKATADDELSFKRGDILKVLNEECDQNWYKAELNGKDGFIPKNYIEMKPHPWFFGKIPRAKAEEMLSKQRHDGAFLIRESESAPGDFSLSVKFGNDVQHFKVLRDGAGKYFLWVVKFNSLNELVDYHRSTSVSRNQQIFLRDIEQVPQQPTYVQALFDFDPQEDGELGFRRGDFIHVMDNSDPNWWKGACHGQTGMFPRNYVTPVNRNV
# 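Wherever SH2 binding enrichment of the phosphorylated peptide, bacterial display is given: peptide library displayed on the E. coli surface as eCPX fusions, selected cells deep-sequenced, score is each peptide's frequency after selection divided by its frequency in the input.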
# 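Wherever phosphorylation enrichment, bacterial display is given: 11-residue human phosphosite peptides and single-mutation variants displayed on the E. coli surface, counted by deep sequencing, each peptide's frequency after selection divided by its frequency in the unselected input library; frequency after pTyr selection over input frequency; kinase dosed for 20-30% of maximal phosphorylation in three min.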
# Sequence of Fes (P07332 whole entry, looked up): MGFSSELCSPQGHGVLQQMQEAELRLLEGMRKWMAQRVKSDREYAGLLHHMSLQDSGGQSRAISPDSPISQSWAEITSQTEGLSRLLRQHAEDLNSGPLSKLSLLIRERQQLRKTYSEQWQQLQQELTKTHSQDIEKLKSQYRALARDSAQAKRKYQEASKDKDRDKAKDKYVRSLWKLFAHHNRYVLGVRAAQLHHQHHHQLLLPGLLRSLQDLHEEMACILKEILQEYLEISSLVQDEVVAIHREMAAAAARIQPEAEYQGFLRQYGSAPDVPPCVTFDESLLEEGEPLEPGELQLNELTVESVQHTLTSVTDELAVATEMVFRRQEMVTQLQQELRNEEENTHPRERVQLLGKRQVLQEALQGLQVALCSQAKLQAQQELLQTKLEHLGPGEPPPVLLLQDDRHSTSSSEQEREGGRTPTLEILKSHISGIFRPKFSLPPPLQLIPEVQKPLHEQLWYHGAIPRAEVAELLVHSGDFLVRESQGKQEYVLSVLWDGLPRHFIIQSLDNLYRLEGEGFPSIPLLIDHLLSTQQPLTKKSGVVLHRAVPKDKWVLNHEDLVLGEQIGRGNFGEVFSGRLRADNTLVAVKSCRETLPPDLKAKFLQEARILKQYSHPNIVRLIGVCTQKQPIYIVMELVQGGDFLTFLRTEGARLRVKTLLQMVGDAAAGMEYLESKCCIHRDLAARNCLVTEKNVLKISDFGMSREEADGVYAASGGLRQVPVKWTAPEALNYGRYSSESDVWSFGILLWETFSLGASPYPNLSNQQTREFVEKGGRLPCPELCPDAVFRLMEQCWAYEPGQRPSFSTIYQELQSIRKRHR
# Sequence of Fyn (P06241 whole entry, looked up): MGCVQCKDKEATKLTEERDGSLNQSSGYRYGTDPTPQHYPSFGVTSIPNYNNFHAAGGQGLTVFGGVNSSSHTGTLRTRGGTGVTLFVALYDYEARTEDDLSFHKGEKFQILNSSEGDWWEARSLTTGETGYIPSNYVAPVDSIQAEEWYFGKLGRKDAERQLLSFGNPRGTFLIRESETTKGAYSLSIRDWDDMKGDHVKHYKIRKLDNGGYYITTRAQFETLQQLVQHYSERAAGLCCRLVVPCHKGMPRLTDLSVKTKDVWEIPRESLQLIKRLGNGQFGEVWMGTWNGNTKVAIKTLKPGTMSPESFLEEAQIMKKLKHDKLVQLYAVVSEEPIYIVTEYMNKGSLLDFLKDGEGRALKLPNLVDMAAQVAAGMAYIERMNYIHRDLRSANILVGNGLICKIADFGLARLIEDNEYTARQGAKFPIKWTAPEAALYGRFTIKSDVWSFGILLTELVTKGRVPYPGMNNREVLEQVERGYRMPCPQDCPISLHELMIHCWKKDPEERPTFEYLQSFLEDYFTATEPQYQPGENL
Sequence,phosphorylation enrichment (FGFR3),phosphorylation enrichment (Fyn),phosphorylation enrichment (Fes),phosphorylation enrichment (c-Abl (mouse)),phosphorylation enrichment (Fer (mouse)),phosphorylation enrichment (Hck),phosphorylation enrichment (AncSZ),phosphorylation enrichment (MERTK),phosphorylation enrichment (c-Src),phosphorylation enrichment (FGFR1),phosphorylation enrichment (EPHB1),phosphorylation enrichment (Jak2),phosphorylation enrichment (EPHB2),SH2 binding enrichment (SHP2-C SH2),SH2 binding enrichment (c-Src SH2),SH2 binding enrichment (Grb2 SH2)
RKETFYILSCR [GUCY2C_Y681_T682I],0.917,0.373,1.59,1.1,0.665,0.355,1.44,0.525,0.448,0.553,0.546,0.953,0.474,0.663,0.519,1.15
RLDGEYFTLQI [TP53_Y327_P322R],4.05,1.34,1.54,1.2,0.72,0.772,1.89,0.538,2.16,5.82,0.748,2.46,0.716,0.572,0.484,0.701
RLGDLYKEEMR [VIM_Y150_E151K],0.832,0.756,1.17,0.762,0.43,0.824,1.08,0.362,0.587,0.674,0.779,0.995,0.672,0.752,0.607,1.09
RLLREYQELMN [KRT75_Y434],0.583,0.746,0.817,0.67,0.465,0.458,0.759,0.376,0.421,0.785,0.691,1.11,0.613,0.995,3.41,1.04
RLLRGHDQFAF [HLA-B_Y137_YF],0.472,0.289,0.554,0.716,0.316,0.405,0.388,0.34,0.505,0.309,0.327,1.07,0.32,0.724,0.748,1.06
RLLRGYDQLAF [HLA-C_Y137_S140L_YF],0.639,0.435,0.838,0.926,0.498,0.554,0.898,0.495,0.62,0.415,0.464,1.08,0.479,0.968,4.73,1.16
RLMLQYDAVVN [SLC25A32_Y152],0.674,0.57,1.67,0.685,0.662,0.702,1.32,0.414,0.406,0.47,0.733,1.13,0.703,0.863,1.88,1.02
RLNCIYYKDQT [RS1_Y165_W163C],0.751,0.878,1.16,0.897,0.497,0.889,1.01,1.57,1.74,0.971,0.722,1.21,0.639,0.456,0.527,1.15
RLRAAYNLVKR [PFKM_Y103],1.01,0.632,1.04,0.815,0.771,0.698,1.16,0.559,0.653,0.658,0.571,0.766,0.715,0.489,0.39,0.721
RLRKYHLGKYL [KLB_Y906_Y906H],0.464,0.318,0.498,0.61,0.426,0.253,0.726,0.503,0.387,0.29,0.439,0.483,0.399,0.594,0.395,0.476
RLRVVYPWTQR [HBB_Y36_L33R],0.568,0.6,0.711,0.484,0.335,0.364,0.688,0.819,0.382,0.422,0.367,0.494,0.363,0.44,0.636,1.06
RMDGTYACSFT [FLNB_Y704_YF],0.812,2.61,1.16,1.34,0.932,2.43,1.3,0.702,2.31,0.836,1.03,0.806,0.741,0.619,0.557,0.893
RNDQVYQPLRD [CD3D_Y149],0.927,5.01,0.7,0.728,0.575,10.9,0.875,1.26,4.45,1.17,1.26,0.673,1.18,0.491,0.663,0.787
RNVFFYSFLLK [PTEN_Y178_Y174N_YF],1.31,0.656,1.72,1.23,0.697,0.565,1.29,0.757,0.508,0.586,0.861,1.59,0.738,1.02,0.907,1.22
RNYGTYTAGLS [RHBDD1_Y264_D262G],0.533,2.18,0.748,0.629,0.519,2.76,0.781,0.55,1.94,0.546,0.804,0.74,3.23,0.512,0.533,0.835
RPYSPYIIRGM [LRP5_Y1531_R1529S],0.509,0.848,0.816,0.681,1.75,0.642,0.886,0.438,1.07,0.399,0.59,0.508,0.575,0.953,1.08,1.16
RQQEDYLLFKQ [RARRES1_Y159_YF],1.28,0.68,1.85,0.924,0.637,1.16,1.57,0.516,0.576,1.45,1.11,1.39,0.978,0.838,0.571,0.892
